Measured values taken from US20040048327.

How the values were obtained:
[1] = molecular target: T1, Cbz-Leu-Leu-ALeu-trans-EP-COOEt
T1 chain: LLL

[2] = molecular target: T2, Cbz-Leu-ALeu-(2S, 3S)-EP-COOEt
T2 chain: LL

Cbz-AHph-trans-EP-COOEt = molecular target: T3, Cbz-AHph-trans-EP-COOEt
T3 chain: X

[3] = molecular target: T4, Cbz-Phe-APhe-trans-EP-CH2CH2Ph
T4 chain: FF

[4] = molecular target: T5, Cbz-Leu-Leu-ALeu-(2S, 3S)-EP-COOEt
T5 chain: LLL

[5] = molecular target: T6, Ac-Leu-ALeu-trans-EP-COOEt
T6 chain: LL

[6] = molecular target: T7, Cbz-Ala-Ala-AAsn-(2S, 3S)-EP-COOEt
T7 chain: AAN

[7] = molecular target: T8, PhPr-Val-Ala-AAsp-trans-EP-COOCH2Ph
T8 chain: VAD

[8] = molecular target: T9, Boc-Np2-ALeu-trans-EP-COOEt
T9 chain: XL

[9] = molecular target: T10, Cbz-Phe-ALeu-trans-EP-CH2CH2Ph
T10 chain: FL

[10] = molecular target: T11, Cbz-Leu-ALeu-cis-EP-COOEt
T11 chain: LL

[11] = molecular target: T12, Ac-Leu-AHph-trans-EP-COOEt
T12 chain: LX

[12] = molecular target: T13, Cbz-Leu-Glu-Thr-AAsp-(2R, 3R)-EP-COOEt
T13 chain: LETD

[13] = molecular target: T14, Cbz-Leu-AHph-(2R, 3R)-EP-COOEt
T14 chain: LX

[14] = molecular target: T15, Cbz-Leu-AAbu-trans-EP-COOEt
T15 chain: LX

[15] = molecular target: T16, Cbz-Leu-Leu-ALeu-(2S, 3S)-EP-COOH
T16 chain: LLL

[16] = molecular target: T17, Cbz-Ala-Ala-AAsn-(2R, 3R)-EP-COOEt
T17 chain: AAN

[17] = molecular target: T18, Cbz-Asp-Glu-Val-AAsp-(2S, 3S)-EP-COOEt (not fully specified)
T18 chain: DEVD

[18] = molecular target: T19, Cbz-Leu-AHph-cis-EP-COOEt
T19 chain: LX

[19] = molecular target: T20, Cbz-Leu-Phe-AGln-trans-EP-COOEt
T20 chain: LFQ

[20] = molecular target: T21, Boc-Nle-AHph-trans-EP-CH2CH2Ph
T21 chain: XX

[21] = molecular target: T22, Cbz-Leu-AAbu-trans-EP-COOH
T22 chain: LX

[22] = molecular target: T23, Cbz-APhe-trans-EP-CH2CH2Ph
T23 chain: F

[23] = molecular target: T24, Suc-Np2-ALeu-trans-EP-COOEt
T24 chain: XL

[24] = molecular target: T25, Cbz-Ala-Ala-NHN(CH2COOEt)-trans-EP-COOEt
T25 chain: AAD

Cbz-APhe-trans-EP-COOEt = molecular target: T26, Cbz-APhe-trans-EP-COOEt
T26 chain: F

[25] = molecular target: T27, PhPr-Val-Ala-AAsp-trans-EP-CH2CH2Ph
T27 chain: VAD

[26] = molecular target: T28, Boc-Nva-AHph-trans-EP-COOEt
T28 chain: XX

[27] = molecular target: T29, Cbz-Leu-ALeu-(2R, 3R)-EP-COOEt
T29 chain: LL

Cbz-ALeu-trans-EP-COOEt = molecular target: T30, Cbz-ALeu-trans-EP-COOEt
T30 chain: L

[28] = molecular target: T31, Cbz-Leu-ALeu-trans-EP-COOEt
T31 chain: LL

[29] = molecular target: T32, Boc-Nle-AHph-trans-EP-COOEt
T32 chain: XX

[30] = molecular target: T33, Cbz-Ala-Ala-AAsn-cis-EP-COOEt
T33 chain: AAN

[31] = molecular target: T34, Cbz-Asp-Glu-Val-AAsp-(2R, 3R)-EP-COOEt (not fully specified)
T34 chain: DEVD

[32] = molecular target: T35, Cbz-Leu-Glu-Thr-AAsp-(2S, 3S)-EP-COOEt
T35 chain: LETD

[33] = molecular target: T36, Cbz-Leu-AHph-(2S, 3S)-EP-COOEt
T36 chain: LX

[34] = molecular target: T37, Cbz-Ala-Ala-AAsn-trans-EP-COOEt
T37 chain: AAN

[35] = molecular target: T38, Boc-Abu-AHph-trans-EP-CH2CH2Ph
T38 chain: XX

[36] = molecular target: T39, Cbz-Phe-ALeu-trans-EP-COOEt
T39 chain: FL

[37] = molecular target: T40, Cbz-Leu-Leu-ALeu-(2R, 3R)-EP-COOEt
T40 chain: LLL

Ac-AHph-trans-EP-COOEt = molecular target: T41, Ac-AHph-trans-EP-COOEt
T41 chain: X

B1: papain (protein)
chain: IPEYVDWRQKGAVTPVKNQGSCGSCWAFSAVVTIEGIIKIRTGNLNEYSEQELLDCDRRSYGCNGGYPWSALQLVAQYGIHYRNTYPYEGVQRYCRSREKGPYAAKTDGVRQVQPYNEGALLYSIANQPVSVVLEAAGKDFQLYRGGIFVGPCGNKVDHAVAAVGYGPNYILIKNSWGTGWGENGYIRIKRGTGNSYGVCGLYTSSFYPVKN
- kobs/[I] [1]: 34.8 M⁻¹ s⁻¹
- kobs/[I] [2]: 10.5 M⁻¹ s⁻¹
- kobs/[I] (Cbz-AHph-trans-EP-COOEt): 18.8 M⁻¹ s⁻¹
- kobs/[I] [3]: 0.5 M⁻¹ s⁻¹
- kobs/[I] [4]: 10.5 M⁻¹ s⁻¹
- kobs/[I] [5]: 2.09 M⁻¹ s⁻¹
- kobs/[I] [6]: 4 M⁻¹ s⁻¹
- kobs/[I] [7]: < 10 M⁻¹ s⁻¹
- kobs/[I] [8]: 3.9 M⁻¹ s⁻¹
- kobs/[I] [9]: 0.7 M⁻¹ s⁻¹
- kobs/[I] [10]: 0.38 M⁻¹ s⁻¹
- kobs/[I] [11]: 1.9 M⁻¹ s⁻¹
- kobs/[I] [12]: 0.24 M⁻¹ s⁻¹
- kobs/[I] [13]: 2.16 M⁻¹ s⁻¹
- kobs/[I] [14]: 4.94 M⁻¹ s⁻¹
- kobs/[I] [15]: 6.93 M⁻¹ s⁻¹
- kobs/[I] [16]: 3 M⁻¹ s⁻¹
- kobs/[I] [17]: NI
- kobs/[I] [18]: 1.03 M⁻¹ s⁻¹
- kobs/[I] [19]: 0.9 M⁻¹ s⁻¹
- kobs/[I] [20]: 0.5 M⁻¹ s⁻¹
- kobs/[I] [21]: 1.47 M⁻¹ s⁻¹
- kobs/[I] [22]: 0.92 M⁻¹ s⁻¹
- kobs/[I] [23]: 1.39 M⁻¹ s⁻¹
- kobs/[I] [24]: 8.17 M⁻¹ s⁻¹
- kobs/[I] (Cbz-APhe-trans-EP-COOEt): 8.5 M⁻¹ s⁻¹
- kobs/[I] [25]: NI
- kobs/[I] [26]: 1.4 M⁻¹ s⁻¹
- kobs/[I] [27]: 6.7 M⁻¹ s⁻¹
- kobs/[I] (Cbz-ALeu-trans-EP-COOEt): 16.1 M⁻¹ s⁻¹
- kobs/[I] [28]: 6.37 M⁻¹ s⁻¹
- kobs/[I] [29]: 1.6 M⁻¹ s⁻¹
- kobs/[I] [30]: NI
- kobs/[I] [31]: NI
- kobs/[I] [32]: 0.47 M⁻¹ s⁻¹
- kobs/[I] [33]: 5.68 M⁻¹ s⁻¹
- kobs/[I] [34]: 0.9 M⁻¹ s⁻¹
- kobs/[I] [35]: 0.2 M⁻¹ s⁻¹
- kobs/[I] [36]: 0.91 M⁻¹ s⁻¹
- kobs/[I] [37]: 20.6 M⁻¹ s⁻¹
- kobs/[I] (Ac-AHph-trans-EP-COOEt): 26.9 M⁻¹ s⁻¹
